Experimental data: publication doi:10.1101/2023.09.20.558662 (bioRxiv, 2023)

What was measured:
cryo-EM structure = molecular target: the molecule itself; assay: cryo-EM structure
[1] = molecular target: CUL3 N-terminal domain (CUL3^NTD, residues 1-381) (UniProt Q13618 1-381); assay: BLI
CUL3 N-terminal domain (CUL3^NTD, residues 1-381), sequence (Q13618 1-381): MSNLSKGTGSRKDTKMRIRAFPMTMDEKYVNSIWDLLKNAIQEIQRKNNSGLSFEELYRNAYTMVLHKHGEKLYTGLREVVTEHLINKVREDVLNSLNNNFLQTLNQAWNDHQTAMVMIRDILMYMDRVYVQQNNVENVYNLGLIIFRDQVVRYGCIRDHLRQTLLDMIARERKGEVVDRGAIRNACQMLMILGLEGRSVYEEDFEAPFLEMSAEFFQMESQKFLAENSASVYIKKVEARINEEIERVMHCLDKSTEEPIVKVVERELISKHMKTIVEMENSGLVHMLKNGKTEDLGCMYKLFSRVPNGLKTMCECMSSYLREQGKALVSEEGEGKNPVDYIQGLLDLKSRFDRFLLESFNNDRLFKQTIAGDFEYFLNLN

B1: KCTD5 (full-length, purified; SEC and cryo-EM samples) (natural protein)
chain: MAENHCELLSPARGGIGAGLGGGLCRRCSAGLGALAQRPGSVSKWVRLNVGGTYFLTTRQTLCRDPKSFLYRLCQADPDLDSDKDETGAYLIDRDPTYFGPVLNYLRHGKLVINKDLAEEGVLEEAEFYNITSLIKLVKDKIRERDSKTSQVPVKHVYRVLQCQEEELTQMVSTMSDGWKFEQLVSIGSSYNYGNEDQAEFLCVVSKELHNTPYGTASEPSEKAKILQERGSRM
cryo-EM structure
  stoichiometry N: 5

B2: Thioredoxin-fusion KCTD5 (natural protein)
chain: MAENHCELLSPARGGIGAGLGGGLCRRCSAGLGALAQRPGSVSKWVRLNVGGTYFLTTRQTLCRDPKSFLYRLCQADPDLDSDKDETGAYLIDRDPTYFGPVLNYLRHGKLVINKDLAEEGVLEEAEFYNITSLIKLVKDKIRERDSKTSQVPVKHVYRVLQCQEEELTQMVSTMSDGWKFEQLVSIGSSYNYGNEDQAEFLCVVSKELHNTPYGTASEPSEKAKILQERGSRM
[1]
  Kd: 30 nM

B3: KCTD5 L161R (natural protein)
chain: MAENHCELLSPARGGIGAGLGGGLCRRCSAGLGALAQRPGSVSKWVRLNVGGTYFLTTRQTLCRDPKSFLYRLCQADPDLDSDKDETGAYLIDRDPTYFGPVLNYLRHGKLVINKDLAEEGVLEEAEFYNITSLIKLVKDKIRERDSKTSQVPVKHVYRVRQCQEEELTQMVSTMSDGWKFEQLVSIGSSYNYGNEDQAEFLCVVSKELHNTPYGTASEPSEKAKILQERGSRM
[1]
  binding result: binds
